Experimental findings from US20130202609A1 (Novartis, published 2013) are described below.

For the assay, the target named is T1, 150 kDa C-terminal fragment of wild-type GAS57 (Streptococcus pyogenes (M1 SF370)).
T1 construct: also called 150 kDa fragment; 150.5 kDa fragment
T1 chain: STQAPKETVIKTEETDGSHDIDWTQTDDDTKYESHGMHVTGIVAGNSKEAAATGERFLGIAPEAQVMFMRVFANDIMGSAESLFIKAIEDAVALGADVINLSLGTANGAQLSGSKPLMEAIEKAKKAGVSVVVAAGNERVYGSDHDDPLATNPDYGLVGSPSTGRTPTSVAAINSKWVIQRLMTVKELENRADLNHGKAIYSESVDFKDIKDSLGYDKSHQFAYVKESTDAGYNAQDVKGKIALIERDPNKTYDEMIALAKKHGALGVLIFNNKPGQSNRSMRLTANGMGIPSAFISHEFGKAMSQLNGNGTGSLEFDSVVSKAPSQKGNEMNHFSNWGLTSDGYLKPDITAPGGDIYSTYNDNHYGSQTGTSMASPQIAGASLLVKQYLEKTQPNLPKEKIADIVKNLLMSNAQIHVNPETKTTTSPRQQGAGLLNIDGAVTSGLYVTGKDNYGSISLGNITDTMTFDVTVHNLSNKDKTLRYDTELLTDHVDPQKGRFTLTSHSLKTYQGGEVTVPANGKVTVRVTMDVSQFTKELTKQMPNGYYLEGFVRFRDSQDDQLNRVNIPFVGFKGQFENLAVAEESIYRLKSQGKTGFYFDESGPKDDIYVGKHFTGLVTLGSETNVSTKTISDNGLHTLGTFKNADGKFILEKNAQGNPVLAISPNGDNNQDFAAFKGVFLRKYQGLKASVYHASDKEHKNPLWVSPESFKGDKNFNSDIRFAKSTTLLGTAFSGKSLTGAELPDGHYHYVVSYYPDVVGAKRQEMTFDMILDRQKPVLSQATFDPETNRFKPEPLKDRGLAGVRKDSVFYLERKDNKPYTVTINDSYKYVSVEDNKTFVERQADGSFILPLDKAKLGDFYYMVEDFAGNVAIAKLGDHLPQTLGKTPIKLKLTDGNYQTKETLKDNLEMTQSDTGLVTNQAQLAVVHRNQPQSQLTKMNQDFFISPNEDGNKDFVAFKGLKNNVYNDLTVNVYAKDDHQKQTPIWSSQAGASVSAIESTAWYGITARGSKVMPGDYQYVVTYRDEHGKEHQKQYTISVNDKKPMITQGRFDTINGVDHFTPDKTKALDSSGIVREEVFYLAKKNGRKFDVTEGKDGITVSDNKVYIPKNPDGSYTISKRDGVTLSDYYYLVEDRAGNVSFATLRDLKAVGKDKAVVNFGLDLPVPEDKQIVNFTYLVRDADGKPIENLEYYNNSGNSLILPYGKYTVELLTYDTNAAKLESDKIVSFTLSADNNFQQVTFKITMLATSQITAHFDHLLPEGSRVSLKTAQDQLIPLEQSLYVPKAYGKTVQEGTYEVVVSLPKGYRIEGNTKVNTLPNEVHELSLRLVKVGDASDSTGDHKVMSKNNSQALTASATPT
Briefly: co-purification on Ni-chelating affinity column and gel filtration; SDS-PAGE.

B1: 23 kDa N-terminal fragment of wild-type GAS57 (other)
chain: ADELSTMSEPTITNHAQQQAQHLTNTELSSAESKSQDTSQITLKTNREKEQSQDLVSEPTTTELADTDAASMANTGSDATQKSASLPPVNTDVHDWVKTKGAWDKGYKGQGKVVAVIDTGIDPAHQSMRISDVSTAKVKSKEDMLARQKAAGINYGSWINDKVVFAHNYVENSDNIKENQFEDFDEDWENFEFDAEAEPKAIKKHKIYRPQ
notes: also called 23 kDa fragment; 23.4 kDa fragment
Consider B1, for which the binding result is listed as “binds”.
